Measurements reported in the MegaScale stability set (Tsuboyama et al. 2023).

B1: EHEE_rd3_0053 (parent)
chain: TYTFKVDNKDQAKKAAKWAKKLGLSFQIEKHGDTFKITVQ

Variants of: B1
Experiment: folding stability dG (cDNA display proteolysis); higher = more stable
Conditions: PBS, room temperature

Row | Variant | folding stability dG [kcal/mol]
1 | TYTFKVDNKDQAKKAAKWAKKLGLSFQIEKHGDLFKITVQ | 2.36
2 | TYTFKVDNKDQAKKAAKWAKKLVLSFQIEKHGDTFKITVQ | 0.722
3 | TYTFKVDNKDQAKKAAKWAKKLKLSFQIEKHGDTFKITVQ | 1.85
4 | TYTFKVDNKDQAKKRAKWAKKLGLSFQIEKHGDTFKITVQ | 1.43
5 | TYSFKVDNKDQAKKAAKWAKKLGLSFQIEKHGDTFKITVQ | 2.34
6 | TYTFKVDNKDQAKKAAKWAKKLGLSFQIRKHGDTFKITVQ | 2.11
7 | TYTFKVDNKDQAKKAAKWAKKLGLSFQIFKHGDTFKITVQ | 1.95
8 | TYTAKVDNKDQAKKAAKWAKKLGLSFQIEKHGDTFKITVQ | 0.455
9 | TYTVKVDNKDQAKKAAKWAKKLGLSFQIEKHGDTFKITVQ | 1.2
10 | TYTCKVDNKDQAKKAAKWAKKLGLSFQIEKHGDTFKITVQ | 3.42
11 | TYTFKVDNKDQAKKAAKWAKKLGLSFYIEKHGDTFKITVQ | 2.58
12 | TRTFKVDNKDQAKKAAKWAKKLGLSFQIEKHGDTFKITVQ | 1.97
13 | TYTFKEDNKDQAKKAAKWAKKLGLSFQIEKHGDTFKITVQ | 0.257
14 | TYTFKWDNKDQAKKAAKWAKKLGLSFQIEKHGDTFKITVQ | 1.28
15 | TYTFKLDNKDQAKKAAKWAKKLGLSFQIEKHGDTFKITVQ | 2.32
16 | TYTFKVDNKDQAKKAAKWAKKLGLSFQIEDHGDTFKITVQ | 1.84
17 | TYTFKVDNKDQAKKAAKWAKKLGLSFQIEMHGDTFKITVQ | 2.16
18 | TYTFKVDNKDQAKKAAKWAKKLGLSFQIEAHGDTFKITVQ | 2.21
19 | TYTFKVDNKDQAKKAAKWAKKLGLSFQIENHGDTFKITVQ | 1.88
20 | TYTFKVDNKDQAKKAAKWAKKLGLSFQYEKHGDTFKITVQ | 1.33
21 | TYTFKVDNKDQAKKAAKWAKKLGLSFQLEKHGDTFKITVQ | 1.84

Row | Variant | folding stability dG [kcal/mol]
22 | TYTFKVDNKDQAKKAAKWAKKLGLSFQTEKHGDTFKITVQ | 0.849
23 | TYTFKVDNKDQAKKAAKWAKKLGLSFQGEKHGDTFKITVQ | -0.457
24 | TYTFKVDNKDQAKKAAKWAKKLGLSFQEEKHGDTFKITVQ | 0.501
25 | TYTFKVDNKDQAKKAAKWAKKLGLSFQMEKHGDTFKITVQ | 2.15
26 | TYTFKVDNKDQAKKAAKWAKKLGLSFQIEKHGLTFKITVQ | 2.14
27 | TYTFKVDNKDQAKKAAKWAKKLGLSFQIEKHGFTFKITVQ | 2
28 | TYTFKVDNKDQAKKAAKWAKKLGLSFQIEKHGATFKITVQ | 2.18
29 | TYTFKVDNKDQAKKAAKWAKKLGLSFQIEKHGSTFKITVQ | 2.33
30 | TYTFKVDNKDQQKKAAKWAKKLGLSFQIEKHGDTFKITVQ | 0.843
31 | TYTFKVDNKDQDKKAAKWAKKLGLSFQIEKHGDTFKITVQ | -0.537
32 | TYTFKVDNKDQAEKAAKWAKKLGLSFQIEKHGDTFKITVQ | 2.32
33 | TYTFKVDNWDQAKKAAKWAKKLGLSFQIEKHGDTFKITVQ | 3.2
34 | TYTFKVDNKDQAKKAAKWAEKLGLSFQIEKHGDTFKITVQ | 2.02
35 | TYTFKVDNKDQAKKAAKWANKLGLSFQIEKHGDTFKITVQ | 1.83
36 | TYTFKVDNKDQAKKAAKWAWKLGLSFQIEKHGDTFKITVQ | 2.14
37 | TYTFKVDNKDQAKKAAKWACKLGLSFQIEKHGDTFKITVQ | 2.67
38 | TYTFKVDNKDQAKKAAKWAKKLGLSFQIEKHGDTFKLTVQ | 1.47
39 | TYTFKVDNKDQAKKAAKWAKKLGLSFQIEKHGDTFVITVQ | 3.14
40 | TYTFKVDNKDQAKKAAKWAKKLGLSFQIEKHGDTFMITVQ | 2.94
41 | HYTFKVDNKDQAKKAAKWAKKLGLSFQIEKHGDTFKITVQ | 2.3
42 | TYTFKVDNKDQAKKAAKWAKKRGLSFQIEKHGDTFKITVQ | 2.63

Row | Variant | folding stability dG [kcal/mol]
43 | TYTFKVDNKDQAKKAAKWAKKLGLSFQIEKRGDTFKITVQ | 2.08
44 | TYTFKVDNKDQAKKAAKWAKKLGLSFQIEKHEDTFKITVQ | 2.03
45 | TYTFEVDNKDQAKKAAKWAKKLGLSFQIEKHGDTFKITVQ | 2.93
46 | TYTFMVDNKDQAKKAAKWAKKLGLSFQIEKHGDTFKITVQ | 3.24
47 | TYTFKVDNKDQAKKAAKWAKWLGLSFQIEKHGDTFKITVQ | 2.19
48 | TYTFKVDNKDQAKKAKKWAKKLGLSFQIEKHGDTFKITVQ | 2.41
49 | TYTFKVDNKRQAKKAAKWAKKLGLSFQIEKHGDTFKITVQ | 2.8
50 | TYTFKVDNKDQAKKAAKWAKKLGLSFQIEKHGDTQKITVQ | 0.075
51 | TYTFKVDNKDQAKKAAKWAKKLGLSFQIEKHGDTTKITVQ | 0.632
52 | TYTFKVDNKDQAKKAAKWAKKLGLPFQIEKHGDTFKITVQ | 1.97
53 | TYTFKVDNKDQAKKAAKWAKKLGLLFQIEKHGDTFKITVQ | 2.39
54 | TYTFKVDNKDQAKKAANWAKKLGLSFQIEKHGDTFKITVQ | 2.23
55 | TYTFKVDNKDQAKKAAVWAKKLGLSFQIEKHGDTFKITVQ | 2.23
56 | TYTFKVDNKDQAKKAAEWAKKLGLSFQIEKHGDTFKITVQ | 2.36
57 | TYTFKVDNKDQAKKAAKWAKKLGLSFQIEKHGDTFKITVL | 2.41
58 | TYTFKVDNKDSAKKAAKWAKKLGLSFQIEKHGDTFKITVQ | 2.18
59 | TYTFKVDNKDRAKKAAKWAKKLGLSFQIEKHGDTFKITVQ | 1.99
60 | TYTFKVDNKDMAKKAAKWAKKLGLSFQIEKHGDTFKITVQ | 2.36
61 | TYTFKVMNKDQAKKAAKWAKKLGLSFQIEKHGDTFKITVQ | 2.51
62 | TYTFKVPNKDQAKKAAKWAKKLGLSFQIEKHGDTFKITVQ | 2.27
63 | TYTFKVDNKDQAKPAAKWAKKLGLSFQIEKHGDTFKITVQ | -0.126
